# Measurements: paper PMC10992996
# Target: Human canonical CRB1 (Crumbs homolog 1) (UniProt P82279)
# Test: co-IP (FLAG-IP) and Western blot quantification
# Conditions: co-transfected in HEK293T cells; three biological replicates; parent: est. 1.0; read off a plot
# Human canonical CRB1 (Crumbs homolog 1), sequence (P82279 26-1406): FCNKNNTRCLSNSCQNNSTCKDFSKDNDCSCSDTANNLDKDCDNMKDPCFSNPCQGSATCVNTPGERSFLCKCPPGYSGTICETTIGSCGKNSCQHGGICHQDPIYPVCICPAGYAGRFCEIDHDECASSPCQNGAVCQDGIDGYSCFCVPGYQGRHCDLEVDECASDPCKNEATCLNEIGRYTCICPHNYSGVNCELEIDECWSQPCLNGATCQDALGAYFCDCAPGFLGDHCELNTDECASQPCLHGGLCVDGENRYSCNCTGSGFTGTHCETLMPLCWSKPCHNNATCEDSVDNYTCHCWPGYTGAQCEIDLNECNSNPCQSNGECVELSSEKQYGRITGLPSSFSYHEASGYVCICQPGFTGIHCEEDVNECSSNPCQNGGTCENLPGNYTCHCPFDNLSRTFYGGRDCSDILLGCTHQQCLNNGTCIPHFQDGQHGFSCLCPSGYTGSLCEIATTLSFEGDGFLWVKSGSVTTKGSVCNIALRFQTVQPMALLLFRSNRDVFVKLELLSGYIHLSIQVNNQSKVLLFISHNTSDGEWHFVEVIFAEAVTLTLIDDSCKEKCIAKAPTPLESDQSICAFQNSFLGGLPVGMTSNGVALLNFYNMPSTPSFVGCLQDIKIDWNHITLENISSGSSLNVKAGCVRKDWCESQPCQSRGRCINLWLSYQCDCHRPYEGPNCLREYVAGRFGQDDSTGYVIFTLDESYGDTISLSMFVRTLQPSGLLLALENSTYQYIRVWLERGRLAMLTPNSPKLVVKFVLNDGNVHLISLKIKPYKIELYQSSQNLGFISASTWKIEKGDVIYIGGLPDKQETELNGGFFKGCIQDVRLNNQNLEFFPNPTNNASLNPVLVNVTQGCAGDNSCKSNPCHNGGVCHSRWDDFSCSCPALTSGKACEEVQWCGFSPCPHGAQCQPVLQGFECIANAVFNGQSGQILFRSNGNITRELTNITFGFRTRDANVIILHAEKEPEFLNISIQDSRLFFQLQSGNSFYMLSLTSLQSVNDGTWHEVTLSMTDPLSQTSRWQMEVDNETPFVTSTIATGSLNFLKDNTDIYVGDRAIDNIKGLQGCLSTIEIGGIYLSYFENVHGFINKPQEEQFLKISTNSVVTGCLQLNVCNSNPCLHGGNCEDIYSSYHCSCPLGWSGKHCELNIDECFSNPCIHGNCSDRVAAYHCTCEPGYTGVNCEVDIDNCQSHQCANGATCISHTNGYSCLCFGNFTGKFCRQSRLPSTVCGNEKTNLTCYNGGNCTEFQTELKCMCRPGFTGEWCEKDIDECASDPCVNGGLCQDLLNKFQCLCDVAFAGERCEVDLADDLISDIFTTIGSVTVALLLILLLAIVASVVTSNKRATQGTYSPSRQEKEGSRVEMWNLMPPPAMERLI
row,ratio to parent,Substance
1,1.1,Human canonical CRB2 (Crumbs homolog 2) (from UniProt Q5IJ48-1) p.C620S
2,1.1,Human canonical CRB2 (Crumbs homolog 2) (from UniProt Q5IJ48-1) p.C629S
3,1.2,Human canonical CRB2 (Crumbs homolog 2) (from UniProt Q5IJ48-1) p.C1129S
4,0.94,Human canonical CRB2 (Crumbs homolog 2) (from UniProt Q5IJ48-1) p.G839W
5,1.1,Human canonical CRB2 (Crumbs homolog 2) (from UniProt Q5IJ48-1) p.L777H
6,1.1,Human canonical CRB2 (Crumbs homolog 2) (from UniProt Q5IJ48-1) p.N800K
7,0.97,Human canonical CRB2 (Crumbs homolog 2) (from UniProt Q5IJ48-1) p.R628C
8,0.9,Human canonical CRB2 (Crumbs homolog 2) (from UniProt Q5IJ48-1) p.R633W
9,1,Human canonical CRB2 (Crumbs homolog 2) (from UniProt Q5IJ48-1) p.R1115C
10,1.1,Human canonical CRB2 (Crumbs homolog 2) (from UniProt Q5IJ48-1) p.W498C
